Results published in patent US20240400715A1 (VIBRANT PHARMA, published 2024).
Substitutions are numbered along the chain they refer to.

B1: 102 (Fab-Knob-CEA+Hole) (bispecific antibody, human IgG4 S228P, kappa, F234A L235A)
heavy: EVKLLESGGGLVQPKGSLKLSCAASGFTFNTYAMNWVRQAPGKGLEWVARIRSKYNNYATYYADSVKDRFTISRDDSQSILYLQMNNLKTEDTAMYYCVRHGNFGNSYVSWFAYWGQGTLVTVSSASTKGPSVFPLAPCSRSTSESTAALGCLVKDYFPEPVTVSWNSGALTSGVHTFPAVLQSSGLYSLSSVVTVPSSSLGTKTYTCNVDHKPSNTKVDKRVESKYGPPCPPCPAPEAAGGPSVFLFPPKPKDTLMISRTPEVTCVVVDVSQEDPEVQFNWYVDGVEVHNAKTKPREEQFNSTYRVVSVLTVLHQDWLNGKEYKCKVSNKGLPSSIEKTISKAKGQPREPQVYTLPPCQEEMTKNQVSLWCLVKGFYPSDIAVEWESNGQPENNYKTTPPVLDSDGSFFLYSRLTVDKSRWQEGNVFSCSVMHEALHNHYTQKSLSLSLGGGGSGGGGSEVQLVESGGGFVQAGESLTLSCTSSTLTFTPYRMAWYRQAPGKQRDLVADISSGDGRTTNYADFAKGRFTISRDNIKNTVFLRMTNLKPEDTAVYYCNTFVSFVGIARSWGQGTQVTVSS
chain: ESKYGPPCPPCPAPEAAGGPSVFLFPPKPKDTLMISRTPEVTCVVVDVSQEDPEVQFNWYVDGVEVHNAKTKPREEQFNSTYRVVSVLTVLHQDWLNGKEYKCKVSNKGLPSSIEKTISKAKGQPREPQVCTLPPSQEEMTKNQVSLSCAVKGFYPSDIAVEWESNGQPENNYKTTPPVLDSDGSFFLVSRLTVDKSRWQEGNVFSCSVMHEALHNRFTQKSLSLSL
light: QAVVTQESALTTSPGETVTLTCRSSTGAVTTSNYANWVQEKPDHLFTGLIGGTNKRAPGVPARFSGSLIGDKAALTITGAQTEDEAIYFCALWYSNLWVFGGGTKVEIKRTVAAPSVFIFPPSDEQLKSGTASVVCLLNNFYPREAKVQWKVDNALQSGNSQESVTEQDSKDSTYSLSSTLTLSKADYEKHKVYACEVTHQGLSSPVTKSFNRGEC
notes: TA1 Fab, C17 VHH, IgG4 Fc KIH
B2: 105 (Knob-CEA+Fab-Hole) (bispecific antibody, human IgG4 S228P, kappa, F234A L235A)
chain: ESKYGPPCPPCPAPEAAGGPSVFLFPPKPKDTLMISRTPEVTCVVVDVSQEDPEVQFNWYVDGVEVHNAKTKPREEQFNSTYRVVSVLTVLHQDWLNGKEYKCKVSNKGLPSSIEKTISKAKGQPREPQVYTLPPCQEEMTKNQVSLWCLVKGFYPSDIAVEWESNGQPENNYKTTPPVLDSDGSFFLYSRLTVDKSRWQEGNVFSCSVMHEALHNHYTQKSLSLSLGGGGSGGGGSEVQLVESGGGFVQAGESLTLSCTSSTLTFTPYRMAWYRQAPGKQRDLVADISSGDGRTTNYADFAKGRFTISRDNIKNTVFLRMTNLKPEDTAVYYCNTFVSFVGIARSWGQGTQVTVSS
heavy: EVKLLESGGGLVQPKGSLKLSCAASGFTFNTYAMNWVRQAPGKGLEWVARIRSKYNNYATYYADSVKDRFTISRDDSQSILYLQMNNLKTEDTAMYYCVRHGNFGNSYVSWFAYWGQGTLVTVSSASTKGPSVFPLAPCSRSTSESTAALGCLVKDYFPEPVTVSWNSGALTSGVHTFPAVLQSSGLYSLSSVVTVPSSSLGTKTYTCNVDHKPSNTKVDKRVESKYGPPCPPCPAPEAAGGPSVFLFPPKPKDTLMISRTPEVTCVVVDVSQEDPEVQFNWYVDGVEVHNAKTKPREEQFNSTYRVVSVLTVLHQDWLNGKEYKCKVSNKGLPSSIEKTISKAKGQPREPQVCTLPPSQEEMTKNQVSLSCAVKGFYPSDIAVEWESNGQPENNYKTTPPVLDSDGSFFLVSRLTVDKSRWQEGNVFSCSVMHEALHNRFTQKSLSLSL
light: B1 light
notes: TA1 Fab, C17 VHH, IgG4 Fc KIH
B3: 103 (Fab-Knob+Hole-CEA) (bispecific antibody, human IgG4 S228P, kappa, F234A L235A)
heavy: B2 heavy with C354Y, S359C, S371W, A373L, V412Y, R440H, F441Y
chain: B2 chain with Y131C, C136S, W148S, L150A, Y189V, H217R, Y218F
light: B1 light
notes: TA1 Fab, C17 VHH, IgG4 Fc KIH
B4: 106 (Knob+Fab-Hole-CEA) (bispecific antibody, human IgG4 S228P, kappa, F234A L235A)
chain: B1 chain with C131Y, S136C, S148W, A150L, V189Y, R217H, F218Y
heavy: B1 heavy with Y354C, C359S, W371S, L373A, Y412V, H440R, Y441F
light: B1 light
notes: TA1 Fab, C17 VHH, IgG4 Fc KIH
B5: 104 (CEA-Knob+Fab-Hole) (bispecific antibody, human IgG4 S228P, kappa, F234A L235A)
chain: EVQLVESGGGFVQAGESLTLSCTSSTLTFTPYRMAWYRQAPGKQRDLVADISSGDGRTTNYADFAKGRFTISRDNIKNTVFLRMTNLKPEDTAVYYCNTFVSFVGIARSWGQGTQVTVSSESKYGPPCPPCPAPEAAGGPSVFLFPPKPKDTLMISRTPEVTCVVVDVSQEDPEVQFNWYVDGVEVHNAKTKPREEQFNSTYRVVSVLTVLHQDWLNGKEYKCKVSNKGLPSSIEKTISKAKGQPREPQVYTLPPCQEEMTKNQVSLWCLVKGFYPSDIAVEWESNGQPENNYKTTPPVLDSDGSFFLYSRLTVDKSRWQEGNVFSCSVMHEALHNHYTQKSLSLSL
heavy: B2 heavy
light: B1 light
notes: TA1 Fab, C17 VHH, IgG4 Fc KIH

biological target: T1, human CD3ε/δ (ACRO systems, CDD-H52W1) (human, UniProt P07766 23-126; P04234 22-105); assay: serum-stability ELISA, Day 1 vs Day 0
T1 construct: bought recombinant heterodimer; also called human CD3 epsilon/delta; Human CD3ε/CD3δ
Protocol: (§1) The samples to be tested were centrifuged at 4° C. at 12000 rpm for 30 minutes to remove the precipitate. 200 μl of each sample to be tested (0.5 mg/ml) was collected in a 1.5 ml Eppendorf tube. An equal volume of human serum (GEMINI, H2OYOOK) was added, mixed thoroughly, and the mixture was incubated in a 37° C. constant temperature CO₂ incubator. For a total of 10 days, 40 μl samples was aspirated every day and stored at −20° C.
(§2) Enzyme-linked immunosorbent assay (ELISA) was used to test the bispecific antibodies' binding to human CEA and human CD3 epsilon/delta antigen. The steps are as follows: the antigen human CD3ε/δ (ACRO systems, CDD-H52W1) and the recombinant tumor antigen human CEA (CEACAM-5/CD66e, ACRO systems, CE5-H5226) were diluted to 1 μg/ml with PBS, and then added to the 96-well plate at 100 μl per well. The wells were coated overnight at 4° C. After washing 3 times with 0.05% PBST, 200 μl 5% skimmed milk powder was added to each well and incubated at 37° C. for 2 h. After washing 3 times with 0.05% PBST, 100 μl primary antibody sample (10 μg/ml) was added to each well, and incubated at 37° C. for 2 h. After washing 3 times with 0.05% PBST, 100 μl (1:6000) diluted secondary antibody goat anti-human Fc-HRP (sigma, A2170) was added to each well, incubated at room temperature for 1 h. After washing 8 times with 0.05% PBST, 50 μl TMB color developing solution was added to each well, and incubated at room temperature for 10-15 min. 50 μl 1 mM HCl was added to each well to stop the color development. 450 nm Absorbance (OD) was read.
(§3) The binding of antibodies to antigen was calculated according to the following formula: Binding (%)=[(ODdayn−ODb)/(ODday0−ODb)]×100%. ODdayn: experimental well (the protein was stored in the serum for n days); ODday0: control well (the protein was not stored in the serum); ODb: blank well (no primary antibody added).

Binding % [%] | Binder
106 | B1
103 | B2
101 | B3
111 | B4
107 | B5

biological target: T1, human CD3ε/δ (ACRO systems, CDD-H52W1); assay: serum-stability ELISA, Day 2 vs Day 0
Protocol: as §1, §2, §3

Binding % [%] | Binder
111 | B1
106 | B2
106 | B3
115 | B4
110 | B5

biological target: T1, human CD3ε/δ (ACRO systems, CDD-H52W1); assay: serum-stability ELISA, Day 5 vs Day 0
Protocol: as §1, §2, §3

Binding % [%] | Binder
108 | B1
107 | B2
105 | B3
116 | B4
104 | B5

biological target: T1, human CD3ε/δ (ACRO systems, CDD-H52W1); assay: serum-stability ELISA, Day 6 vs Day 0
Protocol: as §1, §2, §3

Binding % [%] | Binder
110 | B1
104 | B2
105 | B3
122 | B4
104 | B5

biological target: T1, human CD3ε/δ (ACRO systems, CDD-H52W1); assay: serum-stability ELISA, Day 7 vs Day 0
Protocol: as §1, §2, §3

Binding % [%] | Binder
105 | B1
101 | B2
107 | B3
118 | B4
103 | B5

biological target: T1, human CD3ε/δ (ACRO systems, CDD-H52W1); assay: serum-stability ELISA, Day 9 vs Day 0
Protocol: as §1, §2, §3

Binding % [%] | Binder
100 | B1
105 | B2
103 | B3
112 | B4
108 | B5

biological target: T1, human CD3ε/δ (ACRO systems, CDD-H52W1); assay: serum-stability ELISA, Day 10 vs Day 0
Protocol: as §1, §2, §3

Binding % [%] | Binder
102 | B1
99.2 | B2
100 | B3
106 | B4
107 | B5

biological target: T1, human CD3ε/δ (ACRO systems, CDD-H52W1); assay: serum-stability ELISA, Day 0 (reference)
Protocol: as §1, §2, §3

Binding % [%] | Binder
100 | B1
100 | B2
100 | B3
100 | B4
100 | B5
